Test system: recombinant wild-type human alpha-synuclein

Substance	S129 phosphorylation in vitro, normalised by activity units	S129 phosphorylation, immunoblot (11A5), kinase:AS 1:200 molar	S87 phosphorylation, immunoblot (ELADW-110)	S129 phosphorylation, immunoblot (11A5), rank of signal	phospho ser-129 level in vitro, normalised for molarity
casein kinase II (CKII)	CKII was not detectable	Prominent signals came from GRK6, CKI, CKII and PLK2			
casein kinase I (CKI)	CKI gave a modest signal	Prominent signals came from GRK6, CKI, CKII and PLK2	A signal was detected only with CKI phosphorylation	CKI>GRK6>PLK2>GRK4>GRK5>GRK2	roughly equivalent levels of phospho ser-129 between CKI, GRK6 and PLK2
